Target: T1, Myo5 SH3 (MYO5_YEAST), Q04439
T1 chain: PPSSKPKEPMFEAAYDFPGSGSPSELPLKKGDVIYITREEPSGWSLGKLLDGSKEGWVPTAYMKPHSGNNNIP
Assay: SPOT array

Binder | normalised SPOT signal, Boehringer light units (BLU); mean over the file's lines of this peptide
LVPSKAIPPLPQLD [YJL066C 98-111] | 558
LSPAKARPSFPHND [YOR178C 9-22] | 213
LTSVKIVPQRPISD [YAL054C 43-56] | 89
LTIFKRPPKQPGHQ [YOL006C 477-490] | 703
LTSFKGRPKPPKTL [YGR221C 455-468] | 328
LWRPRIVPILPYIT [YDR335W 779-792] | 1050
LTKIRRRPQQPLTD [YER047C 13-26] | 393
LSRSKPLPLTPNSK [YCL027W 415-428] | 324
LTLTKWDPSKPISL [YKL027W 383-396] | 231
LSKVRGRPMYPRPA [YBR083W 422-435] | 752
LVGLKYEPLFPYFA [YBL076C 285-298] | 125
LYREREEPPLPKRI [YKL214C 53-66] | 112
LSYLKDLPFVPFLF [YNL143C 64-77] | 213

Target: Sho1 SH3 (SHO1_YEAST), P40073
Assay: SPOT array

Chain of Sho1 SH3 (SHO1_YEAST), P40073 (P40073 295-366): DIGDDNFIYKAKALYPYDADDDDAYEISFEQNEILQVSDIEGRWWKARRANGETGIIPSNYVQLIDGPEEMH

Binder | normalised SPOT signal, Boehringer light units (BLU); mean over the file's lines of this peptide
LVPSKAIPPLPQLD [YJL066C 98-111] | 102
LSPAKARPSFPHND [YOR178C 9-22] | 53.3
LTSVKIVPQRPISD [YAL054C 43-56] | 15.3
LTIFKRPPKQPGHQ [YOL006C 477-490] | 93.6
LTSFKGRPKPPKTL [YGR221C 455-468] | 189
LWRPRIVPILPYIT [YDR335W 779-792] | 112
LTKIRRRPQQPLTD [YER047C 13-26] | 117
LSRSKPLPLTPNSK [YCL027W 415-428] | 55900
LTLTKWDPSKPISL [YKL027W 383-396] | 27
LSKVRGRPMYPRPA [YBR083W 422-435] | 82.7
LVGLKYEPLFPYFA [YBL076C 285-298] | 76.6
LYREREEPPLPKRI [YKL214C 53-66] | 189
LSYLKDLPFVPFLF [YNL143C 64-77] | 22900

Target: T2, Boi2 SH3 (BOI2_YEAST), P39969
T2 chain: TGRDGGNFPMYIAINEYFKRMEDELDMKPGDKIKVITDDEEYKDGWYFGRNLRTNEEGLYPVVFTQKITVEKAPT
Assay: SPOT array

Binder | normalised SPOT signal, Boehringer light units (BLU); mean over the file's lines of this peptide
LVPSKAIPPLPQLD [YJL066C 98-111] | 51.2
LSPAKARPSFPHND [YOR178C 9-22] | 31.9
LTSVKIVPQRPISD [YAL054C 43-56] | 54.6
LTIFKRPPKQPGHQ [YOL006C 477-490] | 37.3
LTSFKGRPKPPKTL [YGR221C 455-468] | 12.9
LWRPRIVPILPYIT [YDR335W 779-792] | 1870
LTKIRRRPQQPLTD [YER047C 13-26] | 84.8
LSRSKPLPLTPNSK [YCL027W 415-428] | 86.5
LTLTKWDPSKPISL [YKL027W 383-396] | 104
LSKVRGRPMYPRPA [YBR083W 422-435] | 37
LVGLKYEPLFPYFA [YBL076C 285-298] | 108
LYREREEPPLPKRI [YKL214C 53-66] | 18.3
LSYLKDLPFVPFLF [YNL143C 64-77] | 6.6

Target: T3, Yfr024 SH3 (LSB3_YEAST), P43603
T3 chain: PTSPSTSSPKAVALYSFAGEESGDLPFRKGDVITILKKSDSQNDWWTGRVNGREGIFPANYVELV
Assay: SPOT array

Binder | normalised SPOT signal, Boehringer light units (BLU); mean over the file's lines of this peptide
LVPSKAIPPLPQLD [YJL066C 98-111] | 226
LSPAKARPSFPHND [YOR178C 9-22] | 2350
LTSVKIVPQRPISD [YAL054C 43-56] | 1530
LTIFKRPPKQPGHQ [YOL006C 477-490] | 1030
LTSFKGRPKPPKTL [YGR221C 455-468] | 216
LWRPRIVPILPYIT [YDR335W 779-792] | 1540
LTKIRRRPQQPLTD [YER047C 13-26] | 937
LSRSKPLPLTPNSK [YCL027W 415-428] | 837
LTLTKWDPSKPISL [YKL027W 383-396] | 65.5
LSKVRGRPMYPRPA [YBR083W 422-435] | 342
LVGLKYEPLFPYFA [YBL076C 285-298] | 26.7
LYREREEPPLPKRI [YKL214C 53-66] | 11800
LSYLKDLPFVPFLF [YNL143C 64-77] | 125

Target: T4, Boi1 SH3 (BOI1_YEAST), P38041
T4 chain: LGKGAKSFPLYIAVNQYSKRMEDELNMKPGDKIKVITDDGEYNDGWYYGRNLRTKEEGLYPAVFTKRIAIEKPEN
Assay: SPOT array

Binder | normalised SPOT signal, Boehringer light units (BLU); mean over the file's lines of this peptide
LVPSKAIPPLPQLD [YJL066C 98-111] | 61.8
LSPAKARPSFPHND [YOR178C 9-22] | 807
LTSVKIVPQRPISD [YAL054C 43-56] | 100
LTIFKRPPKQPGHQ [YOL006C 477-490] | 135
LTSFKGRPKPPKTL [YGR221C 455-468] | 710
LWRPRIVPILPYIT [YDR335W 779-792] | 8230
LTKIRRRPQQPLTD [YER047C 13-26] | 3090
LSRSKPLPLTPNSK [YCL027W 415-428] | 642
LTLTKWDPSKPISL [YKL027W 383-396] | 190
LSKVRGRPMYPRPA [YBR083W 422-435] | 479
LVGLKYEPLFPYFA [YBL076C 285-298] | 50.5
LYREREEPPLPKRI [YKL214C 53-66] | 5980
LSYLKDLPFVPFLF [YNL143C 64-77] | 62.5

Target: T5, Yhr016c SH3 (YSC84_YEAST), P32793
T5 chain: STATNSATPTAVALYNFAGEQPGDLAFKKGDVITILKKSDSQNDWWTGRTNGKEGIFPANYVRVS
Assay: SPOT array

Binder | normalised SPOT signal, Boehringer light units (BLU); mean over the file's lines of this peptide
LVPSKAIPPLPQLD [YJL066C 98-111] | 26
LSPAKARPSFPHND [YOR178C 9-22] | 47.2
LTSVKIVPQRPISD [YAL054C 43-56] | 34.4
LTIFKRPPKQPGHQ [YOL006C 477-490] | 730
LTSFKGRPKPPKTL [YGR221C 455-468] | 23.2
LWRPRIVPILPYIT [YDR335W 779-792] | 331
LTKIRRRPQQPLTD [YER047C 13-26] | 71.9
LSRSKPLPLTPNSK [YCL027W 415-428] | 105
LTLTKWDPSKPISL [YKL027W 383-396] | 21.1
LSKVRGRPMYPRPA [YBR083W 422-435] | 51.9
LVGLKYEPLFPYFA [YBL076C 285-298] | 25.3
LYREREEPPLPKRI [YKL214C 53-66] | 16200
LSYLKDLPFVPFLF [YNL143C 64-77] | 18.8

Target: T6, Rvs167 SH3 (RV167_YEAST), P39743
T6 chain: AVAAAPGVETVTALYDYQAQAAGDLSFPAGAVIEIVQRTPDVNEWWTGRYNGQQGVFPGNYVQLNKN
Assay: SPOT array

Binder | normalised SPOT signal, Boehringer light units (BLU); mean over the file's lines of this peptide
LVPSKAIPPLPQLD [YJL066C 98-111] | 28.6
LSPAKARPSFPHND [YOR178C 9-22] | 174
LTSVKIVPQRPISD [YAL054C 43-56] | 244
LTIFKRPPKQPGHQ [YOL006C 477-490] | 160
LTSFKGRPKPPKTL [YGR221C 455-468] | 50.5
LWRPRIVPILPYIT [YDR335W 779-792] | 627
LTKIRRRPQQPLTD [YER047C 13-26] | 388
LSRSKPLPLTPNSK [YCL027W 415-428] | 394
LTLTKWDPSKPISL [YKL027W 383-396] | 12.4
LSKVRGRPMYPRPA [YBR083W 422-435] | 92.6
LVGLKYEPLFPYFA [YBL076C 285-298] | 35.1
LYREREEPPLPKRI [YKL214C 53-66] | 2730
LSYLKDLPFVPFLF [YNL143C 64-77] | 44.3
